Laboratory results from paper PMC10878513, “SRPK2 Mediates HBV Core Protein Phosphorylation and Capsid Assembly via Docking Interaction” (PLOS Pathogens, 2024).

How the values were obtained:
[1] = target: the molecule itself; test: SEC; without ATP; proteins in disassembly buffer (1.5 M GuHCl), GuHCl removed by dialysis against reassembly buffer; analytical Superdex 200 10/300 GL; peak fractions by SDS-PAGE
[2] = target: T1, His-tagged SRPK2WT (full-length SRPK2) (UniProt P78362 1-688); test: MST; 200 nM N-terminally His-tagged SRPK1/2 labelled with RED-tris-NTA as target; GST-CpY132A as ligand in 2-fold serial dilution from 20 μM to 0.61 nM; room temperature; Monolith NT.115, MST power 40%; settings: both partners purified
T1 construct: serine-arginine protein kinase 2 (SRPK2), full length, wild type; Cloned in pET-15b; Labelled on the His tag with RED-tris-NTA for MST; also called His-SRPK2WT; wild-type SRPK2; source: E. coli BL21(DE3)pLysS, purified (Ni-NTA, SEC); not shown: His tag, N-terminal, kept
T1 sequence (P78362 whole entry): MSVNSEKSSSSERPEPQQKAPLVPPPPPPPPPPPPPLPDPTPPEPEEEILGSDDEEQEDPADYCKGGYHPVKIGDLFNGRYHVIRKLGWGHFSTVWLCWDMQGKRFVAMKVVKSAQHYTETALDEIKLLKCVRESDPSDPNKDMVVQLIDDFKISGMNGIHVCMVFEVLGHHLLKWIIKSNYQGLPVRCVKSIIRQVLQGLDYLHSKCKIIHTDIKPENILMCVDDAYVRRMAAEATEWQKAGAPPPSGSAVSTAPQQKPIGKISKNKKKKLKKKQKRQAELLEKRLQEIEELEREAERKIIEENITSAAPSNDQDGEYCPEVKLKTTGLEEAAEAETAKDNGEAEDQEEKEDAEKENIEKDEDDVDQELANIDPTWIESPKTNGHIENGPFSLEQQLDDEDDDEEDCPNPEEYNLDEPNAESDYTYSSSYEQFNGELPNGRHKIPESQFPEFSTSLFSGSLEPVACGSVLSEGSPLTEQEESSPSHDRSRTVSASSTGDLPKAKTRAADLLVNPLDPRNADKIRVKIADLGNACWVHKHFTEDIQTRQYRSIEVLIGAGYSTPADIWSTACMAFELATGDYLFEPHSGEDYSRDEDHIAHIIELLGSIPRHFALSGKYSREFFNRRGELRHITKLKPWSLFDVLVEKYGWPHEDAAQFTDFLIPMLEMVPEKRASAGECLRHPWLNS

[3] = target: T2, His-tagged SRPK1WT (UniProt Q96SB4 1-655); test: as above; settings: both partners purified
T2 construct: serine-arginine protein kinase 1 (SRPK1), wild type; Labelled on the His tag with RED-tris-NTA for MST; also called wild-type SRPK1; source: recombinant, purified; not shown: His tag, N-terminal, kept
T2 sequence (Q96SB4 whole entry): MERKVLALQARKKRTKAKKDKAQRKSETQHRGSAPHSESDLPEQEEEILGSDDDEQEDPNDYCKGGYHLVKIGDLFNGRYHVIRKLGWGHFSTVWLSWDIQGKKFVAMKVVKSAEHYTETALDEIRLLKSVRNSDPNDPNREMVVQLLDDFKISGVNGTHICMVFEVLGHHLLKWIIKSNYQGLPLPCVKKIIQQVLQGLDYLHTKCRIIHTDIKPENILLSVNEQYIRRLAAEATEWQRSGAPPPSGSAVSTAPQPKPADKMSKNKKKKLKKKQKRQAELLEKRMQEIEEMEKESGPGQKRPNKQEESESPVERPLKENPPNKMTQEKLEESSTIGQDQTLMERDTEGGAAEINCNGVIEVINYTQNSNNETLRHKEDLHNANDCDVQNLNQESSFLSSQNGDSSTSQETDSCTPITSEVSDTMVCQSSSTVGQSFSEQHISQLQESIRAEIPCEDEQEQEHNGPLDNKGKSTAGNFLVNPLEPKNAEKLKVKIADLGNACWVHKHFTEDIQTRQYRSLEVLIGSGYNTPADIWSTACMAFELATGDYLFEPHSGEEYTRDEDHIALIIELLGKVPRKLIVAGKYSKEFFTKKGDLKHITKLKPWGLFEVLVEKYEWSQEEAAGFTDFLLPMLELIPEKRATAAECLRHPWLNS

[4] = target: the molecule itself; test: SEC; SRPK2ΔS1/CpWT complex supplemented with 5 mM MgCl2 and 0.1 mM ATP; analytical Superdex 200 10/300 GL; void-volume peak also imaged by negative-stain EM

B1: His-tagged CpWT (wild-type hepatitis B core protein) (natural protein)
chain: MDIDPYKEFGATVELLSFLPSDFFPSVRDLLDTASALYREALESPEHCSPHHTALRQAILCWGELMTLATWVGNNLEDPASRDLVVNYVNTNVGLKIRQLLWFHISCLTFGRETVLEYLVSFGVWIRTPPAYRPPNAPILSTLPETTVVRRRDRGRSPRRRTPSPRRRRSPSPRRRRSQSRESQC
notes: Hepatitis B virus core protein (Cp), subtype adw2, full length, wild type; Kept as a dimer in GuHCl; assembles into capsids (about 35 nm, typical of T = 4) when GuHCl or urea is dialysed away; The His tag is seen as extra density at the 3-fold vertices of the capsid maps; Cloned in pET-15b; also called His-CpWT; CpWT dimer; not shown: His tag, N-terminal, kept
binding result [1]: binds

B2: GST-tagged CpY132A (hepatitis B core protein with the mutation Y132A) (natural protein)
chain: MDIDPYKEFGATVELLSFLPSDFFPSVRDLLDTASALYREALESPEHCSPHHTALRQAILCWGELMTLATWVGNNLEDPASRDLVVNYVNTNVGLKIRQLLWFHISCLTFGRETVLEYLVSFGVWIRTPPAARPPNAPILSTLPETTVVRRRDRGRSPRRRTPSPRRRRSPSPRRRRSQSRESQC
notes: Hepatitis B virus core protein (Cp), subtype adw2, full length (assembly domain 1-149, ARD 150-185); Cloned in pGEX-4T-2; also called GST–CpY132A; GST-CpY132A; source: E. coli BL21(DE3)pLysS, purified (glutathione resin); not shown: GST, N-terminal, kept
Kd [2]: 101 nM | Kd [3]: 83.6 nM

B3: CpWT phosphorylated by SRPK2ΔS1 (after addition of ATP/Mg2+) (natural protein)
chain: MDIDPYKEFGATVELLSFLPSDFFPSVRDLLDTASALYREALESPEHCSPHHTALRQAILCWGELMTLATWVGNNLEDPASRDLVVNYVNTNVGLKIRQLLWFHISCLTFGRETVLEYLVSFGVWIRTPPAYRPPNAPILSTLPETTVVRRRDRGRSPRRRTPSPRRRRSPSPRRRRSQSRESQC
modifications: phosphorylated by SRPK2ΔS1 with ATP/Mg2+; sites and extent not stated for this sample
notes: Hepatitis B virus core protein (Cp), subtype adw2, full length, wild type; also called phosphorylated Cp; capsid formed after the addition of ATP/Mg2+; source: E. coli BL21(DE3)pLysS, purified; SRPK2ΔS1/CpWT complex supplemented with 5 mM MgCl2 and 0.1 mM ATP
binding result [4]: binds
